Test results: patent US20230277625A1 (SIMCHA IL 18, published 2023)

How the values were obtained:
[1] = molecular target: T1, Human IL-18Rα ectodomain (amino acids 19-329), biotinylated (human, UniProt Q13478 19-329, biotin on the AviTag (BirA ligase)); test: SPR; average of 2 studies
T1 construct: range 19-329; Secreted from insect cells (gp67 signal peptide removed); also called hIL-18Rα; hIL18Rα
T1 sequence: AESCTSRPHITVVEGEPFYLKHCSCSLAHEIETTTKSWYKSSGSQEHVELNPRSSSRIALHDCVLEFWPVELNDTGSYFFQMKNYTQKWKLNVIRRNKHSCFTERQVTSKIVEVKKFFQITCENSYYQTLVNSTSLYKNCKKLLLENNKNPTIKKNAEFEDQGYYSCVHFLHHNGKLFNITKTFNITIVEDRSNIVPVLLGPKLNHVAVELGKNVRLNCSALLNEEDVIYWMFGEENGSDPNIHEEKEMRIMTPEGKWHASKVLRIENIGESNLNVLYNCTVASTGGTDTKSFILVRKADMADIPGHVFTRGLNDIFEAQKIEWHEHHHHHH

[2] = molecular target: T2, Human IL-18BP (amino acids 31-194), biotinylated (human, UniProt O95998 31-194, biotin on the AviTag (BirA ligase) where used biotinylated); test: SPR; average of 2 studies
T2 construct: Soluble decoy receptor; also called hIL-18BP; recombinant IL-18BP
T2 sequence: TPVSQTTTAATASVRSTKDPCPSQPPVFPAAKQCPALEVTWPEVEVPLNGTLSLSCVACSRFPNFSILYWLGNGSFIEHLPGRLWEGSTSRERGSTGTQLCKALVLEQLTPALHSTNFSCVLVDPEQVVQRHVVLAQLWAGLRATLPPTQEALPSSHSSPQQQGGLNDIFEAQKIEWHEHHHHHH

[3] = molecular target: T2, Human IL-18BP (amino acids 31-194), …; test: SPR; KD ratio relative to WT IL-18
Procedure: (§1) Experiments were conducted using a Biacore T100 and carried out at 25° C. Biotinylated IL-18Rα or IL-18BP were immobilized onto a Biacore biotin capture chip (Series S CAP sensor chip, GE Healthcare) to yield an Rmax of ˜50 RU (IL-18Rα) or ˜10 RU (IL-18BP). Measurements were made with serial dilutions of the IL-18 variants in HEPES buffered Saline-P+buffer (10 mM HEPES pH 7.4, 150 mM NaCl, 0.005% surfactant P20). The surface was regenerated by three 60-sec injections of regeneration buffer (3/4 (v/v) 8M guanidine hydrochloride with 1/4 (v/v) 1M sodium hydroxide). Experiments were performed in multiple channels simultaneously for increased observations. All data were analyzed with the Biacore T100 evaluation software version 2.0 with a 1:1 Langmuir binding model.
(§2) To additionally characterize the receptor binding activities of the DR-IL-18 variants, the cytokines were expressed recombinantly and surface plasmon resonance for IL-18Rα and IL-18BP was performed (see FIG. 5B for representative traces).

[4] = molecular target: T2, Human IL-18BP (amino acids 31-194), …; test: SPR; KD for IL-18BP over KD for IL-18Rα
Procedure: as §1, §2

[5] = molecular target: T2, Human IL-18BP (amino acids 31-194), …; test: on-yeast binding isotherm (flow cytometry)
[6] = molecular target: T2, Human IL-18BP (amino acids 31-194), …; test: SPR; KD(IL-18BP)/KD(IL-18Rα) normalized to WT IL-18
[7] = molecular target: T2, Human IL-18BP (amino acids 31-194), …; test: on-yeast binding isotherms; KD ratio relative to WT IL-18
[8] = molecular target: T2, Human IL-18BP (amino acids 31-194), …; test: on-yeast binding isotherms; KD for IL-18BP over KD for IL-18Rα
[9] = molecular target: T2, Human IL-18BP (amino acids 31-194), …; test: SPR (Biacore T100), IL-18BP captured via biotin, IL-18 as analyte
Procedure: as §1, §2

[10] = molecular target: T2, Human IL-18BP (amino acids 31-194), …; test: on-yeast binding isotherm (flow cytometry); members per FIG. 5A legend
Procedure: (§3) Individual colonies of IL-18 yeast were grown overnight at 30° C. in SDCAA liquid media and induced in SGCAA liquid media for 1 day at 20° C. IL-18 display levels on yeast were verified by flow cytometry using an anti-cMyc tag antibody (anti-myc-PE; Cell Signaling Technologies). Receptor staining with biotinylated IL-18Rα (with or without IL-18R β) or biotinylated IL-18BP was performed in PBS supplemented with 0.5% BSA and 2 mM EDTA (PBE) on ice. All analysis was performed on a Sony SA3800 flow cytometer.
as §2

[11] = molecular target: T1, Human IL-18Rα ectodomain (amino acids …); test: SPR (Biacore T100), receptor captured via biotin, IL-18 as analyte
Procedure: as §1, §2

[12] = molecular target: T2, Human IL-18BP (amino acids 31-194), …; test: on-yeast binding isotherm (flow cytometry), drawn summary table, column IL18BP (KD)
Procedure: as §3

[13] = molecular target: T1, Human IL-18Rα ectodomain (amino acids …); test: on-yeast binding isotherm (flow cytometry), drawn summary table, IL18Rα (KD)
Procedure: as §3

[14] = molecular target: T2, Human IL-18BP (amino acids 31-194), …; test: SPR, immobilized biotinylated hIL-18BP, representative sensorgram FIG. 5B; representative sensorgram, FIG. 5B; single run, not the average
Procedure: (§4) By contrast, very little binding is observed with the same variants and hIL-18BP (right).
as §1

[15] = molecular target: T2, Human IL-18BP (amino acids 31-194), …; test: SPR, single-cycle injections of 1.5, 4.5, 13.5, 40.5 and 121.5 nM over immobilized biotinylated hIL-18BP; the sheet prints two constants, KD1 and KD2 (KD2 = 15.2 nM is the value in the text)
Procedure: as §4, §1

[16] = molecular target: T2, Human IL-18BP (amino acids 31-194), …; test: on-yeast binding isotherms; 20 µM used for NBD; yeast-displayed variant, flow cytometry; ratio computed with 20 µM put in for NBD
[17] = molecular target: T2, Human IL-18BP (amino acids 31-194), …; test: on-yeast binding isotherms; KD ratio relative to WT IL-18; yeast-displayed variant; ratio normalized to WT, from the 20 µM placeholder
[18] = molecular target: T3, Mouse IL-18Rα ectodomain (amino acids 19-329), biotinylated (mouse, UniProt Q61098 19-329, biotin on the AviTag (BirA ligase)); test: on-yeast binding isotherm (flow cytometry)
T3 construct: range 19-329; Secreted from Expi293 cells (H7 signal peptide removed); also called mIL-18Rα; mIL18Ra
T3 sequence: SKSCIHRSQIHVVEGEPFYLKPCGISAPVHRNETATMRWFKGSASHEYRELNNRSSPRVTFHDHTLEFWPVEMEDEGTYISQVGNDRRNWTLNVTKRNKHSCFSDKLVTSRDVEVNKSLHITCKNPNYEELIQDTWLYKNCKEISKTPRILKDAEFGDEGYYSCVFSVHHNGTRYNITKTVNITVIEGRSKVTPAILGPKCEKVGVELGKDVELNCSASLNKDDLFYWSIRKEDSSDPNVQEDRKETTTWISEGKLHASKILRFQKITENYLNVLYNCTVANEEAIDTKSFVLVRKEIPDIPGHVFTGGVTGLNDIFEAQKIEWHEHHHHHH
Procedure: as §3

[19] = molecular target: T4, Mouse IL-18BP (amino acids 31-194), biotinylated (mouse, UniProt Q9Z0M9 29-193, biotin on the AviTag (BirA ligase)); test: yeast binding isotherms and SPR; members per FIG. 11A legend
T4 construct: also called mIL-18BP
T4 sequence: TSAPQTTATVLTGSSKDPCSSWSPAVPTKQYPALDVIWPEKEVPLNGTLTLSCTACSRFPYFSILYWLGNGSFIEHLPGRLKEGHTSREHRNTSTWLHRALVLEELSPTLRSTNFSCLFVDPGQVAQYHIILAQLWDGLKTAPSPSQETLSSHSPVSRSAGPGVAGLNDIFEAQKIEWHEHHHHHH
Procedure: as §3, §1

[20] = molecular target: T4, Mouse IL-18BP (amino acids 31-194), …; test: SPR; KD ratio relative to WT IL-18; SPR; ratio normalized to WT
Procedure: as §1

[21] = molecular target: T3, Mouse IL-18Rα ectodomain (amino acids …); test: SPR (Biacore T100), receptor captured via biotin, IL-18 as analyte
Procedure: as §1

[22] = molecular target: T4, Mouse IL-18BP (amino acids 31-194), …; test: SPR; KD for IL-18BP over KD for IL-18Rα; SPR; ratio of two measured KD
Procedure: as §1

[23] = molecular target: T4, Mouse IL-18BP (amino acids 31-194), …; test: SPR; range of a group, this end tied to A7 by the 9th table; m is a multiple of 1,000,000
[24] = molecular target: T4, Mouse IL-18BP (amino acids 31-194), …; test: SPR (Biacore T100), IL-18BP captured via biotin, IL-18 as analyte; SPR, soluble variant
Procedure: as §1

[25] = molecular target: T4, Mouse IL-18BP (amino acids 31-194), …; test: on-yeast binding isotherms; 10 µM used for NBD; yeast-displayed variant; ratio computed with 10 µM put in for NBD
Procedure: as §3

[26] = molecular target: T4, Mouse IL-18BP (amino acids 31-194), …; test: on-yeast binding isotherms; KD ratio relative to WT IL-18; yeast-displayed variant; ratio normalized to WT, from the 10 µM placeholder
Procedure: as §3

B1: SEQ ID NO: 34 (human DR-IL-18 variant hCS1) (ligand)
chain: YFGKLESKLSVIRNLNDQVLFIDQGNRPLFEDMTDSDCRDNAPRTIFIISTYKDSQPRGKAVTISVKCEKISTLSCENKIISFKEMNPPDNIKDTKSDIIFFQRDVPGHKHKMQFESSSYEGYFLACEKERDLFKLILKKEDELGDRSIMFTVQNED
notes: Engineered variant
Q: B1 was tested. Which Kd [1] did it give?
A: 8 nM

Q: And the Kd [2]?
A: 11.8 nM

Q: What about the “Dissociation Constant Ratio normalized to WT IL-18” value [3] of the same binder?
A: 3720

Q: And the “KD ratio IL-18BP/IL-18Rα” value [4]?
A: 2.41

Q: And the Kd [5]?
A: 19300 nM

Q: And the “IL-18 BP:Rα Dissociation Constant Ratio” value [6]?
A: 3020

Q: What about the “Dissociation Constant Ratio normalized to WT IL-18” value [7] of the same binder?
A: 1020

Q: And the “KD ratio IL-18BP/IL-18Rα” value [8]?
A: 300

Q: What about the Kd [9] of the same binder?
A: 19.4 nM

Q: What about the EC50 [10] of the same binder?
A: > 1000 nM

Q: What about the Kd [11] of the same binder?
A: 8.05 nM

Q: And the Kd [12]?
A: 710 nM

Q: What about the Kd [13] of the same binder?
A: 146 nM

Q: And the Kd [14]?
A: 15.2 nM

Q: What about the “KD1 (first of two fitted dissociation constants)” value [15] of the same binder?
A: 36.7 nM

B2: SEQ ID NO: 35 (human DR-IL-18 variant hCS2) (ligand)
chain: YFGKLESKLSVIRNLNDQVLFIDQGNRPLFEDMTDSDCRDNAPRTIFIISTYKDKQPRAKAVTISVKCEKISTLSCENKIISFKEMNPPDNIKDTKSDIIFFQRDVPGHKHKMQFESSSYEGYFLACEKERDLFKLILKKEDELGDRSIMFTIQNED
notes: Engineered variant
Q: What does the source list for B2?
A: Kd [11]: 13.1 nM; Kd [13]: 92 nM; KD ratio IL-18BP/IL-18Rα [16]: > 219; Dissociation Constant Ratio normalized to WT IL-18 [17]: > 741

B3: SEQ ID NO: 70 (murine DR-IL-18 variant mA7) (ligand)
chain: YFGRLHCTTAVIRNINDQVLFVDKRQPVFEDMTDIDQSASEPQTRLIIYAYGDNRVRGKAVTLSVKDSKMSTLSCKNKIISFEEMDPPENIDDIQSDLIFFQKRVPGHNKMEFESSLYEGHFLACQKEDDAFKLILKKKDENGDKSVMFTLTNLHQS
notes: Engineered variant
Q: With B3 as the binder, how does the Kd [18] read?
A: 13.5 nM

Q: And the Kd [19]?
A: > 1000 nM

Q: What about the “Dissociation Constant Ratio normalized to WT IL-18” value [20] of the same binder?
A: 3.45e+07

Q: And the Kd [21]?
A: 0.22 nM

Q: What about the “KD ratio IL-18BP/IL-18Rα” value [22] of the same binder?
A: 63200

Q: What about the “IL-18 BP:Rα Dissociation Constant Ratio” value [23] of the same binder?
A: 3.5e+07

Q: And the Kd [24]?
A: 13900 nM

Q: What about the “KD ratio IL-18BP/IL-18Rα” value [25] of the same binder?
A: > 741

Q: And the “Dissociation Constant Ratio normalized to WT IL-18” value [26]?
A: > 3930
